T1: TrxA_ElaSub1_CBM-His fusion protein
T1 chain: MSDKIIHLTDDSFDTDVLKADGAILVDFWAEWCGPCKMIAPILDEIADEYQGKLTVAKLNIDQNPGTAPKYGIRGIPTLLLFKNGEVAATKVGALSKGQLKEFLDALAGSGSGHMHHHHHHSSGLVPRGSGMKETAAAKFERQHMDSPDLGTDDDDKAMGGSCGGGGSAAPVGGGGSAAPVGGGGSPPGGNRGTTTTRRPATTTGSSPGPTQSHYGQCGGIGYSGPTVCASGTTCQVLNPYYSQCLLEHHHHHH

T2: ElaSub1_CBM_His chimeric protein (variant 3), separated from the TrxA tag and coupled with Remazol Brilliant Blue
T2 chain: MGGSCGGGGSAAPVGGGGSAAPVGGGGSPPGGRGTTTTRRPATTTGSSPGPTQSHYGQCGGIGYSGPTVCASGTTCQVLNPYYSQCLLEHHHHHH

B1: recombinant expressed bovine enterokinase from Merck Millipore (protein)
chain: IVGGSDSREGAWPWVVALYFDDQQVCGASLVSRDWLVSAAHCVYGRNMEPSKWKAVLGLHMASNLTSPQIETRLIDQIVINPHYNKRRKNNDIAMMHLEMKVNYTDYIQPICLPEENQVFPPGRICSIAGWGALIYQGSTADVLQEADVPLLSNEKCQQQMPEYNITENMVCAGYEAGGVDSCQGDSGGPLMCQENNRWLLAGVTSFGYQCALPNRPGVYARVPRFTEWIQSFLH
B2: human leukocyte elastase (HLE) (protein)
chain: IVGGRRARPHAWPFMVSLQLRGGHFCGATLIAPNFVMSAAHCVANVNVRAVRVVLGAHNLSRREPTRQVFAVQRIFENGYDPVNLLNDIVILQLNGSATINANVQVAQLPAQGRRLGNGVQCLAMGWGLLGRNRGIASVLQELNVTVVTSLCRRSNVCTLVRGRQAGVCFGDSGSPLVCNGLIHGIASFVRGGCASGLYPDAFAPVAQFVNWIDSIIQ

Columns and labels:
[1] = molecular target: T1, TrxA_ElaSub1_CBM-His fusion protein
[2] = molecular target: T2, ElaSub1_CBM_His chimeric protein …

Protein | separation of the chimeric construct from the TrxA tag (SDS-PAGE) [1] | colour of the supernatant (dye release from the filter strip carrying the chimeric peptide, 30 min, 0.05 U/ml HLE) [2]
B1 | The separation of the desired chimeric construct from the TrxA-Tag was verified by SDS-PAGE. | –
B2 | – | Initially non coloured samples (clear supernatant) that exhibit elastase activity developed a blue colour

Reference: US20230213525
